We go through 1 substance from PMC11361444.

For the assay, the target named is 3XFLAG-ZAPL N658A (human) (UniProt Q7Z2W4). Briefly: co-IP; 3XFLAG-ZAPL and myc-TRIM25 co-transfected into ZAP KO HEK293T cells; lysed in FLAG buffer (100mM Tris HCl pH8.0, 150mM NaCl, 5mM EDTA, 5% glycerol, 0.1% NP-40, 1mM DTT); FLAG beads with lysates at 4°C for 45 min, three washes, immunoblot; densitometry of myc-TRIM25 normalized to FLAG-ZAP pulldown and to WT.
UniProt Q7Z2W4, sequence (Q7Z2W4 whole entry N658A): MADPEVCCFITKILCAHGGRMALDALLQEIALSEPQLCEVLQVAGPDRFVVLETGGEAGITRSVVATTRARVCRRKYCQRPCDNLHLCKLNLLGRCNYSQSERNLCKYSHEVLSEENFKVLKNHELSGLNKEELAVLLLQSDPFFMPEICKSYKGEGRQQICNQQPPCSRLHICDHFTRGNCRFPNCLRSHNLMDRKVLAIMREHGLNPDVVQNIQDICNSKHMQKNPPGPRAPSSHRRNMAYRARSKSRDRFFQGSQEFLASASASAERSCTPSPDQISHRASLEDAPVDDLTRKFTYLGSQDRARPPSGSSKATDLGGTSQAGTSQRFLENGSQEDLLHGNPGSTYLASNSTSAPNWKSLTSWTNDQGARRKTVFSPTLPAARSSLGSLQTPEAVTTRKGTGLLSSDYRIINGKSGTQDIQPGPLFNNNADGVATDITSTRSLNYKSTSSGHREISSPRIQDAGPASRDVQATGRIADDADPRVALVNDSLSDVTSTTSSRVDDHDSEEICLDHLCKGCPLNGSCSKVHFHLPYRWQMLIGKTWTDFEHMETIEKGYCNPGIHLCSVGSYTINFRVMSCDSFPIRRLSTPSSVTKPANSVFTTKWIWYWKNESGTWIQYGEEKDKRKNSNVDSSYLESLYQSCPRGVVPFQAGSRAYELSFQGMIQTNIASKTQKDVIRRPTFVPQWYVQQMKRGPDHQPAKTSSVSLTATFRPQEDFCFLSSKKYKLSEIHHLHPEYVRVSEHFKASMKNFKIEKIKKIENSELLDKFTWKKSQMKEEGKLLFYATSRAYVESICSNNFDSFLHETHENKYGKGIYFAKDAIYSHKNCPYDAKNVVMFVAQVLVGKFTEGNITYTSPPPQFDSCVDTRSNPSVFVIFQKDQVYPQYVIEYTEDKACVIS

In turn, “myc-TRIM25 (tripartite motif containing 25) (from UniProt Q14258 1-630) (natural protein)” gave a myc-TRIM25 immunoprecipitated by FLAG-ZAP, relative to ZAPL WT (x (fold of ZAPL WT)) of 1.09.
